According to paper PMC13334617:
Where “and” joins values, the source holds several entries; their conditions need not be identical. Equal values may be shown once.

Tests used:
[1] = molecular target: ACM2 variant of AC fused to GFP (ACM2-GFP), encoded by plasmid pACM2-Gfp (Bordetella pertussis | not stated) (UniProt P0DKX7); assay: two-hybrid
[2] = molecular target: ACM1 variant of AC fused to GFP (ACM1-GFP), encoded by plasmid pACM1-Gfp (Bordetella pertussis | not stated) (UniProt P0DKX7); assay: two-hybrid

Binder | cAMP [1] [nmol/mg] | ß gal (Rel. Units) [1] | cAMP [2] [nmol/mg] | ß gal (Rel. Units) [2] [Rel. Units]
CaM fused to the V9A nanobody at its N-terminus and a tetra-cysteine tag at its C-terminus (CaM-V9A) (VHH) VHH: DVQLQESGGGSVQAGGSLRLSCAASGDTFSSYSMAWFRQAPGKECELVSNILRDGTTTYAGSVKGRFTISRDDAKNTVYLQMVNLKSEDTARYYCAADSGTQLGYVGAVGLSCLDYVMDYWGKGTQVTVSS | > 60 | 78 Rel. Units | > 50 | 26
CaM fused to the V9A nanobody at its N-terminus, with a C-terminal AviTag (CaM-V9A), encoded by plas (VHH) VHH: DVQLQESGGGSVQAGGSLRLSCAASGDTFSSYSMAWFRQAPGKECELVSNILRDGTTTYAGSVKGRFTISRDDAKNTVYLQMVNLKSEDTARYYCAADSGTQLGYVGAVGLSCLDYVMDYWGKGTQVTVSS | – | 57 Rel. Units and 23 Rel. Units | – | 4
CaM fused to the V1K nanobody at its N-terminus, with a C-terminal AviTag (CaM-V1K), encoded by plasmid pK1Cam-V1K (VHH) VHH: QVQLVESGGALVQPGGSLRLSCAASGFPVNRYSMRWYRQAPGKEREWVAGMSSAGDRSSYEDSVKGRFTISRDDARNTVYLQMNSLKPEDTAVYYCNVNVGFEYWGQGTQVTVSS | – | 74 Rel. Units | – | –
